What was measured:
Test in all cases: ACV tripeptide formation, HPLC/MS
Assay type in all cases: biochemical, Amycolatopsis lactamdurans
CC(C)[C@H](N)C(=O)O = details: L-α-Aaa and L-Cys co-substrates, 5 mM ATP, 5 mM MgCl2, 2 mM DTT, CoA and Sfp, pH 7.0, 30 °C, module 3
N[C@@H](CCCC(=O)O)C(=O)O = details: L-Cys and L-Val co-substrates, 5 mM ATP, 5 mM MgCl2, 2 mM DTT, CoA and Sfp, pH 7.0, 30 °C, module 1
N[C@@H](CS)C(=O)O = details: L-α-Aaa and L-Val co-substrates, 5 mM ATP, 5 mM MgCl2, 2 mM DTT, CoA and Sfp, pH 7.0, 30 °C, module 2

With “Nl ACVS (L-δ-(α-aminoadipoyl)-L-cysteinyl-D-valine synthetase) (Amycolatopsis lactamdurans)” the Km (CC(C)[C@H](N)C(=O)O) was 150 ± 4 µM, the Km (N[C@@H](CCCC(=O)O)C(=O)O) was 640 ± 16 µM and the Km (N[C@@H](CS)C(=O)O) was 40 ± 1 µM.
